T1: human TL1A extracellular domain with N-terminal HIS and FLAG tag (human, UniProt O95150 72-251)
T1 construct: whole entry named. ~70 kDa fraction purified by gel filtration
T1 sequence: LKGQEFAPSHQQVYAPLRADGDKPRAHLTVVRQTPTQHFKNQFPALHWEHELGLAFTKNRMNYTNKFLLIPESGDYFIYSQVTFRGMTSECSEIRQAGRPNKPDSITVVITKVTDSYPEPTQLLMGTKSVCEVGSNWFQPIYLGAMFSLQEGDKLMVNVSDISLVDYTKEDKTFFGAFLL

T2: human TL1A extracellular domain with N-terminal HIS and FLAG tag (human, UniProt O95150 72-251)
T2 construct: the whole entry is named; also called TNFSF15
T2 sequence: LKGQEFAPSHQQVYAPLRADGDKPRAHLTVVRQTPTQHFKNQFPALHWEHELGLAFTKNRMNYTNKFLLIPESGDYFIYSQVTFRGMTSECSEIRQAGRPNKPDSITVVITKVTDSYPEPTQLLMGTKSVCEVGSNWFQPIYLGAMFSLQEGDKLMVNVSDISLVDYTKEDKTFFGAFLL

B1: 320-192 (antibody, human IgG1, name in Kabat numbering, V domains shown)
VH: QVQLVQSGAEVKKPGASVKVSCKASGYTFTSYDINWVRQAPGQGLEWMGWLNPNSGNTGYAQKFQGRVTMTADRSTSTAYMELSSLRSEDTAVYYCAREVPETAAFEYWGQGTLVTVSS
VL: QSVLTQPPSVSGAPGQRVTISCASSSSDIGAGLGVHWYQQLPGTAPKLLIEGYYNRPSGVPDRFSGSKSGTSASLTITGLLPEDEGDYYCQSYDGTLSALFGGGTKLTVLG
notes: human IgG1, lambda
B2: 320-206 (antibody, human IgG1, name in Kabat numbering, V domains shown)
VH: QVQLVQSGAEVKKPGASVKVSCKASGYTFTSYDINWVRQAPGQGLEWMGWLNPNSGNTGYAQKFQGRVTMTADRSTSTAYMELSSLRSEDTAVYYCAREVPETAAFEYWGQGTLVTVSS
VL: QSVLTQPPSVSGAPGQRVTISCTLSSSDIGAGLGVHWYQQLPGTAPKLLIEGYYNRPSGVPDRFSGSKSGTSASLTITGLLPEDEGDYYCQSYDGTLSALFGGGTKLTVLG
notes: human IgG1, lambda
B3: 320-212 (antibody, human IgG1, name in Kabat numbering, V domains shown)
VH: QVQLVQSGAEVKKPGASVKVSCKASGYTFTSYDINWVRQAPGQGLEWMGWLNPNSGNTGYAQKFQGRVTMTADRSTSTAYMELSSLRSEDTAVYYCAREVPETAAFEYWGQGTLVTVSS
VL: QSVLTQPPSVSGAPGQRVTISCTSHSSDIGAGLGVHWYQQLPGTAPKLLIEGYYNRPSGVPDRFSGSKSGTSASLTITGLLPEDEGDYYCQSYDGTLSALFGGGTKLTVLG
notes: human IgG1, lambda
B4: 320-210 (antibody, human IgG1, name in Kabat numbering, V domains shown)
VH: QVQLVQSGAEVKKPGASVKVSCKASGYTFTSYDINWVRQAPGQGLEWMGWLNPNSGNTGYAQKFQGRVTMTADRSTSTAYMELSSLRSEDTAVYYCAREVPETAAFEYWGQGTLVTVSS
VL: QSVLTQPPSVSGAPGQRVTISCTSQSSDIGAGLGVHWYQQLPGTAPKLLIEGYYNRPSGVPDRFSGSKSGTSASLTITGLLPEDEGDYYCQSYDGTLSALFGGGTKLTVLG
notes: human IgG1, lambda
B5: 320-215 (antibody, human IgG1, name in Kabat numbering, V domains shown)
VH: QVQLVQSGAEVKKPGASVKVSCKASGYTFTSYDINWVRQAPGQGLEWMGWLNPNSGNTGYAQKFQGRVTMTADRSTSTAYMELSSLRSEDTAVYYCAREVPETAAFEYWGQGTLVTVSS
VL: QSVLTQPPSVSGAPGQRVTISCTSWSSDIGAGLGVHWYQQLPGTAPKLLIEGYYNRPSGVPDRFSGSKSGTSASLTITGLLPEDEGDYYCQSYDGTLSALFGGGTKLTVLG
notes: human IgG1, lambda
B6: 320-214 (antibody, human IgG1, name in Kabat numbering, V domains shown)
VH: QVQLVQSGAEVKKPGASVKVSCKASGYTFTSYDINWVRQAPGQGLEWMGWLNPNSGNTGYAQKFQGRVTMTADRSTSTAYMELSSLRSEDTAVYYCAREVPETAAFEYWGQGTLVTVSS
VL: QSVLTQPPSVSGAPGQRVTISCTSLSSDIGAGLGVHWYQQLPGTAPKLLIEGYYNRPSGVPDRFSGSKSGTSASLTITGLLPEDEGDYYCQSYDGTLSALFGGGTKLTVLG
notes: human IgG1, lambda
B7: 320-200 (antibody, human IgG1, name in Kabat numbering, V domains shown)
VH: QVQLVQSGAEVKKPGASVKVSCKASGYTFTSYDINWVRQAPGQGLEWMGWLNPNSGNTGYAQKFQGRVTMTADRSTSTAYMELSSLRSEDTAVYYCAREVPETAAFEYWGQGTLVTVSS
VL: QSVLTQPPSVSGAPGQRVTISCYSSSSDIGAGLGVHWYQQLPGTAPKLLIEGYYNRPSGVPDRFSGSKSGTSASLTITGLLPEDEGDYYCQSYDGTLSALFGGGTKLTVLG
notes: human IgG1, lambda
B8: 320-204 (antibody, human IgG1, name in Kabat numbering, V domains shown)
VH: QVQLVQSGAEVKKPGASVKVSCKASGYTFTSYDINWVRQAPGQGLEWMGWLNPNSGNTGYAQKFQGRVTMTADRSTSTAYMELSSLRSEDTAVYYCAREVPETAAFEYWGQGTLVTVSS
VL: QSVLTQPPSVSGAPGQRVTISCTHSSSDIGAGLGVHWYQQLPGTAPKLLIEGYYNRPSGVPDRFSGSKSGTSASLTITGLLPEDEGDYYCQSYDGTLSALFGGGTKLTVLG
notes: human IgG1, lambda
B9: 320-208 (antibody, human IgG1, name in Kabat numbering, V domains shown)
VH: QVQLVQSGAEVKKPGASVKVSCKASGYTFTSYDINWVRQAPGQGLEWMGWLNPNSGNTGYAQKFQGRVTMTADRSTSTAYMELSSLRSEDTAVYYCAREVPETAAFEYWGQGTLVTVSS
VL: QSVLTQPPSVSGAPGQRVTISCTYSSSDIGAGLGVHWYQQLPGTAPKLLIEGYYNRPSGVPDRFSGSKSGTSASLTITGLLPEDEGDYYCQSYDGTLSALFGGGTKLTVLG
notes: human IgG1, lambda
B10: 320-195 (antibody, human IgG1, name in Kabat numbering, V domains shown)
VH: QVQLVQSGAEVKKPGASVKVSCKASGYTFTSYDINWVRQAPGQGLEWMGWLNPNSGNTGYAQKFQGRVTMTADRSTSTAYMELSSLRSEDTAVYYCAREVPETAAFEYWGQGTLVTVSS
VL: QSVLTQPPSVSGAPGQRVTISCDSSSSDIGAGLGVHWYQQLPGTAPKLLIEGYYNRPSGVPDRFSGSKSGTSASLTITGLLPEDEGDYYCQSYDGTLSALFGGGTKLTVLG
notes: human IgG1, lambda
B11: 320-217 (antibody, human IgG1, name in Kabat numbering, V domains shown)
VH: QVQLVQSGAEVKKPGASVKVSCKASGYTFTSYDINWVRQAPGQGLEWMGWLNPNSGNTGYAQKFQGRVTMTADRSTSTAYMELSSLRSEDTAVYYCAREVPETAAFEYWGQGTLVTVSS
VL: QSVLTQPPSVSGAPGQRVTISCTSSASDIGAGLGVHWYQQLPGTAPKLLIEGYYNRPSGVPDRFSGSKSGTSASLTITGLLPEDEGDYYCQSYDGTLSALFGGGTKLTVLG
notes: human IgG1, lambda
B12: 320-580 (antibody, human IgG1, name in Kabat numbering, V domains shown)
VH: QVQLVQSGAEVKKPGASVKVSCKASGYTFTSYDINWVRQAPGQGLEWMGWLNPNSYNTGYAQKFQGRVTMTADRSTSTAYMELSSLRSEDTAVYYCAREVPETAAFEYWGQGTLVTVSS
VL: QSVLTQPPSVSGAPGQRVTISCTSSSSDIGAGLGVHWYQQLPGTAPKLLIEGYYNRPSGVPDRFSGSKSGTSASLTITGLLPEDEGDYYCQSYDGTLSALFGGGTKLTVLG
notes: full-length human IgG1, lambda
B13: 320-581 (antibody, human IgG1, name in Kabat numbering, V domains shown)
VH: QVQLVQSGAEVKKPGASVKVSCKASGYTFTSYDINWVRQAPGQGLEWMGWLNPNSGNTGLAQKFQGRVTMTADRSTSTAYMELSSLRSEDTAVYYCAREVPETAAFEYWGQGTLVTVSS
VL: QSVLTQPPSVSGAPGQRVTISCTSSSSDIGAGLGVHWYQQLPGTAPKLLIEGYYNRPSGVPDRFSGSKSGTSASLTITGLLPEDEGDYYCQSYDGTLSALFGGGTKLTVLG
notes: as for B12
B14: 320-582 (antibody, human IgG1, name in Kabat numbering, V domains shown)
VH: QVQLVQSGAEVKKPGASVKVSCKASGYTFTSYDINWVRQAPGQGLEWMGWLNPNSGNTGWAQKFQGRVTMTADRSTSTAYMELSSLRSEDTAVYYCAREVPETAAFEYWGQGTLVTVSS
VL: QSVLTQPPSVSGAPGQRVTISCTSSSSDIGAGLGVHWYQQLPGTAPKLLIEGYYNRPSGVPDRFSGSKSGTSASLTITGLLPEDEGDYYCQSYDGTLSALFGGGTKLTVLG
notes: as for B12
B15: 320-216 (antibody, human IgG1, name in Kabat numbering, V domains shown)
VH: QVQLVQSGAEVKKPGASVKVSCKASGYTFTSYDINWVRQAPGQGLEWMGWLNPNSGNTGYAQKFQGRVTMTADRSTSTAYMELSSLRSEDTAVYYCAREVPETAAFEYWGQGTLVTVSS
VL: QSVLTQPPSVSGAPGQRVTISCTSYSSDIGAGLGVHWYQQLPGTAPKLLIEGYYNRPSGVPDRFSGSKSGTSASLTITGLLPEDEGDYYCQSYDGTLSALFGGGTKLTVLG
notes: human IgG1, lambda
B16: 320-196 (antibody, human IgG1, name in Kabat numbering, V domains shown)
VH: QVQLVQSGAEVKKPGASVKVSCKASGYTFTSYDINWVRQAPGQGLEWMGWLNPNSGNTGYAQKFQGRVTMTADRSTSTAYMELSSLRSEDTAVYYCAREVPETAAFEYWGQGTLVTVSS
VL: QSVLTQPPSVSGAPGQRVTISCHSSSSDIGAGLGVHWYQQLPGTAPKLLIEGYYNRPSGVPDRFSGSKSGTSASLTITGLLPEDEGDYYCQSYDGTLSALFGGGTKLTVLG
notes: human IgG1, lambda

Columns and labels:
[1] = target: T1, human TL1A extracellular domain with …; test: SPR run 2; supernatant on Protein A; TL1A 10 ug/mL; timepoint 44
Description: (§1) 1.5. Antibody expression and antigen binding as determined by SPR. Using a CM5 sensor chip (GE Healthcare) Protein A (Pierce) was coupled to the chip surface using an amine coupling kit (GE Healthcare). Protein A was coupled on flow cell 1 and 2 (or alternatively 3 and 4) using a BIACORE® T200. […] The amount of supernatant or purified protein (as well as the concentration) injected during the capture stage varied between runs and is specified in the header of the Tables 3-11. At the end of injection of the supernatant or purified antibody the change in response units was measured. This value was reported as Capture Level in Tables 3-11. […] The response units were measured prior to the end of the dissociation phase. […] The sensorgrams were double referenced (flow cell 2 is subtracted from flow cell 1 and a buffer blank). As there were a large number of antibody variants to screen, these were screened across different runs (Tables 3-11). […] A summary of the conditions used in each run is below:
(§2) 2.1. […] In some experiment the antibodies were purified using Protein A chromatography (See 1.4) and purified antibodies were used in BIACORE® (GE Healthcare) experiments.

[2] = target: T1, human TL1A extracellular domain with …; test: SPR run 2; supernatant on Protein A; TL1A 10 ug/mL; timepoint 220
Description: as §1, §2

[3] = target: T2, human TL1A extracellular domain with …; test: SPR Run 7, antibody on Protein A, TL1A 5 ug/mL, timepoint 220
How it was run: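 CM5 chip, amine-coupled Protein A; capture of supernatant or purified Ab (load varies per run); capture level = ΔRU at end of injection; binding RU read late in dissociation; double referencing (reference cell + buffer blank).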

[4] = target: T2, human TL1A extracellular domain with …; test: SPR Run 7, antibody on Protein A, TL1A 5 ug/mL, timepoint 44
How it was run: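 The capture level was the response change at the end of loading, which varied by run. Antigen response was read before dissociation ended, double-referenced against a reference flow cell and a buffer blank.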

Row | Binder | TL1A Binding Level (Early) [1] [RU] | TL1A Binding Level (Late) [2] [RU] | TL1A Binding Level (Late) [3] [RU] | TL1A Binding Level (Early) [4] [RU]
1 | B1 | 238 | 218 |  | 
2 | B2 | 257 | 235 |  | 
3 | B3 | 226 | 205 |  | 
4 | B4 | 225 | 202 |  | 
5 | B5 | 220 | 199 |  | 
6 | B6 | 221 | 196 |  | 
7 | B7 | 251 | 231 |  | 
8 | B8 | 193 | 155 |  | 
9 | B9 | 222 | 199 |  | 
10 | B10 | 249 | 227 |  | 
11 | B11 | 258 | 235 |  | 
12 | B12 |  |  | 47 | 51
13 | B13 |  |  | 65 | 70
14 | B14 |  |  | 52 | 67
15 | B15 | 171 | 147 |  | 
16 | B16 | 250 | 228 |  | 
